# Assay results taken from article PMC9482650, “Quantitative fragmentomics allow affinity mapping of interactomes” (Nature Communications, 2022).
# T1: HTRA4, P83105
# T1 sequence (P83105 378-476, limits assumed, looked up): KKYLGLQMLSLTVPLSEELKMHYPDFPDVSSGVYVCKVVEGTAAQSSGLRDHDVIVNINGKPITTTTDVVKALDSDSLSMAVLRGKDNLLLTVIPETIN
# T2: PTPN13_1, Q12923
# T2 sequence (Q12923 1088-1188, limits assumed, looked up): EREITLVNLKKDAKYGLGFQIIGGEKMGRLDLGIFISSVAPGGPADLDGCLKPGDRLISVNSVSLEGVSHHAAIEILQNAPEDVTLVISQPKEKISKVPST
# T3: APBA3_1, O96018
# T3 sequence (O96018 389-490, limits assumed, looked up): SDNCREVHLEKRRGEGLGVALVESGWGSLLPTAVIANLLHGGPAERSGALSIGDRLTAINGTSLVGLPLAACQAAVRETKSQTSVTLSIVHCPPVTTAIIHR
# T4: TIAM2, Q8IVF5
# T4 sequence (Q8IVF5 885-986, limits assumed, looked up): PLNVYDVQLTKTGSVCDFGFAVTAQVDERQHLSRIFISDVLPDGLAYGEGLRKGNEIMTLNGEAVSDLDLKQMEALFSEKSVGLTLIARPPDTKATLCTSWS
# T5: RHPN1, Q8TCX5
# T5 sequence (Q8TCX5 508-602, limits assumed, looked up): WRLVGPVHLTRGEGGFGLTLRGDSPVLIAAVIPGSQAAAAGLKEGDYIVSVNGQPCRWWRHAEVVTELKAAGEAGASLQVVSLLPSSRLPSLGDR
# T6: SNTG2, Q9NY99
# T6 sequence (Q9NY99 68-166, limits assumed, looked up): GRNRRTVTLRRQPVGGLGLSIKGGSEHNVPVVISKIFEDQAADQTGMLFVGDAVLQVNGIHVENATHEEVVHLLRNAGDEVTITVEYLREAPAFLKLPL
# T7: RAPGEF6, Q8TEU7
# T7 sequence (Q8TEU7 525-625, limits assumed, looked up): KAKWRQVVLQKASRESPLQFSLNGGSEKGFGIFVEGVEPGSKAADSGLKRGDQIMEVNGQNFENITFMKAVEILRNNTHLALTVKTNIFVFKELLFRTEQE
# T8: FRMPD1, Q5SYB0
# T8 sequence (Q5SYB0 52-145, limits assumed, looked up): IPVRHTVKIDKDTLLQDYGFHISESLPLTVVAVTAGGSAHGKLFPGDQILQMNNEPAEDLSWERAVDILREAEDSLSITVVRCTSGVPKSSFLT
# T9: PDZD7_3, Q9H5P4
# T9 sequence (Q9H5P4 857-944, limits assumed, looked up): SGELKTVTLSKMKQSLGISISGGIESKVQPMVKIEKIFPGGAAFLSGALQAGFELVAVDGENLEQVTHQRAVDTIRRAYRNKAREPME
# T10: DVL3, Q92997
# T10 sequence (Q92997 244-331, limits assumed, looked up): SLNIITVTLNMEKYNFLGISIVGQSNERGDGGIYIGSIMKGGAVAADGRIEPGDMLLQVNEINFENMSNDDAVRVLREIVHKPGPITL
# T11: SIPA1L2, Q9P2F8
# T11 sequence (Q9P2F8 945-1036, limits assumed, looked up): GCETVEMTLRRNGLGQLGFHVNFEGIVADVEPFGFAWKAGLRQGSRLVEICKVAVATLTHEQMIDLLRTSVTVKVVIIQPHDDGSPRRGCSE
# Target: T1, HTRA4, P83105
# Assay: holdup assay
# Parameters: key: below the threshold = too weak to quantify, mostly under pKd 3.1 to 4
# Settings: plain residues with an end cap or a label only (N-terminal biotin on a linker: ado-ado)
row,pKd,Binder
1,below the threshold,"TNSRHGETTV [FZD2, Q14332]"

# Target: T2, PTPN13_1, Q12923
# Assay: holdup assay
# Parameters: key: below the threshold = too weak to quantify, mostly under pKd 3.1 to 4
# Settings: plain residues with an end cap or a label only (N-terminal biotin on a linker: ado-ado)
row,pKd,Binder
1,below the threshold,"TNSRHGETTV [FZD2, Q14332]"

# Target: LNX1_2, Q8TBB1
# Assay: holdup assay
# Parameters: key: below the threshold = too weak to quantify, mostly under pKd 3.1 to 4
# Settings: plain residues with an end cap or a label only (N-terminal biotin on a linker: ado-ado)
# Sequence of LNX1_2, Q8TBB1 (Q8TBB1 371-470): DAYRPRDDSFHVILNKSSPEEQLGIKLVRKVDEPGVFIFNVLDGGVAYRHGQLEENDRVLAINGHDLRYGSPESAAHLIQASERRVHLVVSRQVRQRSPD
row,pKd,Binder
1,3.78,"TNSRHGETTV [FZD2, Q14332]"

# Target: FRMPD2_3, Q68DX3
# Assay: holdup assay
# Parameters: key: below the threshold = too weak to quantify, mostly under pKd 3.1 to 4
# Settings: plain residues with an end cap or a label only (N-terminal biotin on a linker: ado-ado)
# Sequence of FRMPD2_3, Q68DX3 (Q68DX3 1073-1166): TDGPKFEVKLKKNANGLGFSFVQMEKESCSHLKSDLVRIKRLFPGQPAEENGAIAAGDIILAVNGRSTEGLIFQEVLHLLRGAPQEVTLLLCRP
row,pKd,Binder
1,3.62,"TNSRHGETTV [FZD2, Q14332]"

# Target: FRMPD4, Q14CM0
# Assay: holdup assay
# Parameters: key: below the threshold = too weak to quantify, mostly under pKd 3.1 to 4
# Settings: plain residues with an end cap or a label only (N-terminal biotin on a linker: ado-ado)
# Sequence of FRMPD4, Q14CM0 (Q14CM0 67-160): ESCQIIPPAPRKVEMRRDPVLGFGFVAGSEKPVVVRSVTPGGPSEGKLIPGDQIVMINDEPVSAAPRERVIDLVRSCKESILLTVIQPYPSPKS
row,pKd,Binder
1,below the threshold,"TNSRHGETTV [FZD2, Q14332]"

# Target: NHERF4_4, Q86UT5
# Assay: holdup assay
# Parameters: key: below the threshold = too weak to quantify, mostly under pKd 3.1 to 4
# Settings: plain residues with an end cap or a label only (N-terminal biotin on a linker: ado-ado)
# Sequence of NHERF4_4, Q86UT5 (Q86UT5 464-550): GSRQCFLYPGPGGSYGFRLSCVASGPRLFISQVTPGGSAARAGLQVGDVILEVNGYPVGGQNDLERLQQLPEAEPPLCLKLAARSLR
row,pKd,Binder
1,3.92,"TNSRHGETTV [FZD2, Q14332]"

# Target: T3, APBA3_1, O96018
# Assay: holdup assay
# Parameters: key: below the threshold = too weak to quantify, mostly under pKd 3.1 to 4
# Settings: plain residues with an end cap or a label only (N-terminal biotin on a linker: ado-ado)
row,pKd,Binder
1,below the threshold,"TNSRHGETTV [FZD2, Q14332]"

# Target: Inadl_6, Q8NI35
# Assay: holdup assay
# Parameters: key: below the threshold = too weak to quantify, mostly under pKd 3.1 to 4
# Settings: plain residues with an end cap or a label only (N-terminal biotin on a linker: ado-ado)
# Sequence of Inadl_6, Q8NI35 (Q8NI35 1058-1167): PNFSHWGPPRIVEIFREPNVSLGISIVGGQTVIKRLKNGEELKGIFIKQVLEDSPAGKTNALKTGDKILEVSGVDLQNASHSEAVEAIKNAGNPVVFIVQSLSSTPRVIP
row,pKd,Binder
1,below the threshold,"TNSRHGETTV [FZD2, Q14332]"

# Target: T4, TIAM2, Q8IVF5
# Assay: holdup assay
# Parameters: key: below the threshold = too weak to quantify, mostly under pKd 3.1 to 4
# Settings: plain residues with an end cap or a label only (N-terminal biotin on a linker: ado-ado)
row,pKd,Binder
1,below the threshold,"TNSRHGETTV [FZD2, Q14332]"

# Target: T5, RHPN1, Q8TCX5
# Assay: holdup assay
# Parameters: key: below the threshold = too weak to quantify, mostly under pKd 3.1 to 4
# Settings: plain residues with an end cap or a label only (N-terminal biotin on a linker: ado-ado)
row,pKd,Binder
1,4.16,"TNSRHGETTV [FZD2, Q14332]"

# Target: GRIP2_4, Q9C0E4
# Assay: holdup assay
# Parameters: key: below the threshold = too weak to quantify, mostly under pKd 3.1 to 4
# Settings: plain residues with an end cap or a label only (N-terminal biotin on a linker: ado-ado)
# Sequence of GRIP2_4, Q9C0E4 (Q9C0E4 446-548): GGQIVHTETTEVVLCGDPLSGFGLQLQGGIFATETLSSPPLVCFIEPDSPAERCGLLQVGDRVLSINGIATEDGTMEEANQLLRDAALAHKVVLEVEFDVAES
row,pKd,Binder
1,below the threshold,"TNSRHGETTV [FZD2, Q14332]"

# Target: MAGI2_6, Q86UL8
# Assay: holdup assay
# Parameters: key: below the threshold = too weak to quantify, mostly under pKd 3.1 to 4
# Settings: plain residues with an end cap or a label only (N-terminal biotin on a linker: ado-ado)
# Sequence of MAGI2_6, Q86UL8 (Q86UL8 1141-1229): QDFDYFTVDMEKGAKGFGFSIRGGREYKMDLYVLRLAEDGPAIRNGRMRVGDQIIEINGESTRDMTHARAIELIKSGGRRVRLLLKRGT
row,pKd,Binder
1,4.26,"TNSRHGETTV [FZD2, Q14332]"

# Target: DLG2_3, Q15700
# Assay: holdup assay
# Parameters: key: below the threshold = too weak to quantify, mostly under pKd 3.1 to 4
# Settings: plain residues with an end cap or a label only (N-terminal biotin on a linker: ado-ado)
row,pKd,Binder
1,4.38,"TNSRHGETTV [FZD2, Q14332]"

# Target: PDZRN4_1, Q6ZMN7
# Assay: holdup assay
# Parameters: key: below the threshold = too weak to quantify, mostly under pKd 3.1 to 4
# Settings: plain residues with an end cap or a label only (N-terminal biotin on a linker: ado-ado)
# Sequence of PDZRN4_1, Q6ZMN7 (Q6ZMN7 213-318): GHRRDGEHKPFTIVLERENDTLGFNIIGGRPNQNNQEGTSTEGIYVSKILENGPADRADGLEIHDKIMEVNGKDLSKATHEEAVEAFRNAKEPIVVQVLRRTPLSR
row,pKd,Binder
1,4.18,"TNSRHGETTV [FZD2, Q14332]"

# Target: FRMPD2_1, Q68DX3
# Assay: holdup assay
# Parameters: key: below the threshold = too weak to quantify, mostly under pKd 3.1 to 4
# Settings: plain residues with an end cap or a label only (N-terminal biotin on a linker: ado-ado)
# Sequence of FRMPD2_1, Q68DX3 (Q68DX3 770-861): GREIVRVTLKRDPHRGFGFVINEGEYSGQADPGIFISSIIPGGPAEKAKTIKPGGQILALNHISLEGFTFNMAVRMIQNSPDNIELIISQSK
row,pKd,Binder
1,3.6,"TNSRHGETTV [FZD2, Q14332]"

# Target: GRASP, Q7Z6J2
# Assay: holdup assay
# Parameters: key: below the threshold = too weak to quantify, mostly under pKd 3.1 to 4
# Settings: plain residues with an end cap or a label only (N-terminal biotin on a linker: ado-ado)
# Sequence of GRASP, Q7Z6J2 (Q7Z6J2 96-193): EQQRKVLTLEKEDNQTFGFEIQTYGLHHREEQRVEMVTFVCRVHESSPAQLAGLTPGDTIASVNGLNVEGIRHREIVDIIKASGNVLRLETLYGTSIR
row,pKd,Binder
1,3.56,"TNSRHGETTV [FZD2, Q14332]"

# Target: T6, SNTG2, Q9NY99
# Assay: holdup assay
# Parameters: key: below the threshold = too weak to quantify, mostly under pKd 3.1 to 4
# Settings: plain residues with an end cap or a label only (N-terminal biotin on a linker: ado-ado)
row,pKd,Binder
1,4.29,"TNSRHGETTV [FZD2, Q14332]"

# Target: LNX1_1, Q8TBB1
# Assay: holdup assay
# Parameters: key: below the threshold = too weak to quantify, mostly under pKd 3.1 to 4
# Settings: plain residues with an end cap or a label only (N-terminal biotin on a linker: ado-ado)
# Sequence of LNX1_1, Q8TBB1 (Q8TBB1 261-371): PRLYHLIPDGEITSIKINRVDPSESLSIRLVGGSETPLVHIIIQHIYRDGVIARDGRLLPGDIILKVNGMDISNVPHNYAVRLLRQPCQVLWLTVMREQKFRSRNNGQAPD
row,pKd,Binder
1,below the threshold,"TNSRHGETTV [FZD2, Q14332]"

# Target: T7, RAPGEF6, Q8TEU7
# Assay: holdup assay
# Parameters: key: below the threshold = too weak to quantify, mostly under pKd 3.1 to 4
# Settings: plain residues with an end cap or a label only (N-terminal biotin on a linker: ado-ado)
row,pKd,Binder
1,below the threshold,"TNSRHGETTV [FZD2, Q14332]"

# Target: T8, FRMPD1, Q5SYB0
# Assay: holdup assay
# Parameters: key: below the threshold = too weak to quantify, mostly under pKd 3.1 to 4
# Settings: plain residues with an end cap or a label only (N-terminal biotin on a linker: ado-ado)
row,pKd,Binder
1,below the threshold,"TNSRHGETTV [FZD2, Q14332]"

# Target: ARHGEF12, Q9NZN5-2
# Assay: holdup assay
# Parameters: key: below the threshold = too weak to quantify, mostly under pKd 3.1 to 4
# Settings: plain residues with an end cap or a label only (N-terminal biotin on a linker: ado-ado)
# Sequence of ARHGEF12, Q9NZN5-2 (Q9NZN5 other isoform, or with tags, fused parts or gaps): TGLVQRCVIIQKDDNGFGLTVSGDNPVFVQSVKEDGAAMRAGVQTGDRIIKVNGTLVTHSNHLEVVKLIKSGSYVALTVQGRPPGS
row,pKd,Binder
1,3.57,"TNSRHGETTV [FZD2, Q14332]"

# Target: FRMPD2_2, Q68DX3
# Assay: holdup assay
# Parameters: key: below the threshold = too weak to quantify, mostly under pKd 3.1 to 4
# Settings: plain residues with an end cap or a label only (N-terminal biotin on a linker: ado-ado)
# Sequence of FRMPD2_2, Q68DX3 (Q68DX3 944-1038): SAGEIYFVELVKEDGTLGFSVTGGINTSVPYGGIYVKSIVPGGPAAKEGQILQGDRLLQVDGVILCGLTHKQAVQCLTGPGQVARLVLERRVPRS
row,pKd,Binder
1,3.54,"TNSRHGETTV [FZD2, Q14332]"

# Target: Inadl_8, Q8NI35
# Assay: holdup assay
# Parameters: key: below the threshold = too weak to quantify, mostly under pKd 3.1 to 4
# Settings: plain residues with an end cap or a label only (N-terminal biotin on a linker: ado-ado)
# Sequence of Inadl_8, Q8NI35 (Q8NI35 1425-1530): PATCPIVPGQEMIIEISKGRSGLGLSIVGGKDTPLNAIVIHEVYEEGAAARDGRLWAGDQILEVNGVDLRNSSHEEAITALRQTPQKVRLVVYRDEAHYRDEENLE
row,pKd,Binder
1,3.57,"TNSRHGETTV [FZD2, Q14332]"

# Target: MAGI2_3, Q86UL8
# Assay: holdup assay
# Parameters: key: below the threshold = too weak to quantify, mostly under pKd 3.1 to 4
# Settings: plain residues with an end cap or a label only (N-terminal biotin on a linker: ado-ado)
# Sequence of MAGI2_3, Q86UL8 (Q86UL8 600-682): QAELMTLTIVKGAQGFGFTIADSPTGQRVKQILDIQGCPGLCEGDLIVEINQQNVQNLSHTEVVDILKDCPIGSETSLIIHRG
row,pKd,Binder
1,3.53,"TNSRHGETTV [FZD2, Q14332]"

# Target: T9, PDZD7_3, Q9H5P4
# Assay: holdup assay
# Parameters: key: below the threshold = too weak to quantify, mostly under pKd 3.1 to 4
# Settings: plain residues with an end cap or a label only (N-terminal biotin on a linker: ado-ado)
row,pKd,Binder
1,4.26,"TNSRHGETTV [FZD2, Q14332]"

# Target: T10, DVL3, Q92997
# Assay: holdup assay
# Parameters: key: below the threshold = too weak to quantify, mostly under pKd 3.1 to 4
# Settings: plain residues with an end cap or a label only (N-terminal biotin on a linker: ado-ado)
row,pKd,Binder
1,below the threshold,"TNSRHGETTV [FZD2, Q14332]"

# Target: T11, SIPA1L2, Q9P2F8
# Assay: holdup assay
# Parameters: key: below the threshold = too weak to quantify, mostly under pKd 3.1 to 4
# Settings: plain residues with an end cap or a label only (N-terminal biotin on a linker: ado-ado)
row,pKd,Binder
1,below the threshold,"TNSRHGETTV [FZD2, Q14332]"
